Laboratory results taken from the Human Domainome abundance scans (Beltran et al. 2025).
± gives the uncertainty stated by the source.

B1: Nucleosome-remodeling factor subunit BPTF, residues 2862 to 2918; numbered along this chain, Q12830 (parent)
chain: TKKDTKLYCICKTPYDESKFYIGCDRCQNWYHGRCVGILQSEAELIDEYVCPQCQST
B2: Cold shock protein CspB, residues 1 to 66; numbered along this chain, P41016 (parent)
chain: MQRGKVKWFNNEKGYGFIEVEGGSDVFVHFTAIQGEGFKTLEEGQEVSFEIVQGNRGPQAANVVKL

Variants of: B1
Assay: abundance fitness (aPCA) (normalised: wild type 0, dead -1); higher = more abundant; growth selection in yeast, the domain comes from the species named
Conditions: Homo sapiens

Abundance fitness: each site, then its substitutions
T1: A -0.54 ± 0.29 | N 0.018 ± 0.22 | R -0.281 ± 0.15 | P -0.264 ± 0.18 | K -0.199 ± 0.16 | W -0.152 ± 0.19 | D -0.071 ± 0.34 | V -0.177 ± 0.17 | L -0.256 ± 0.18 | I -0.132 ± 0.19 | H -0.277 ± 0.26 | M -0.13 ± 0.19 | G -0.147 ± 0.15 | S -0.104 ± 0.091 | E -0.185 ± 0.28
K3: A -0.146 ± 0.073

Variants of: B2
Assay: as above
Conditions: Bacillus caldolyticus

Abundance fitness of substitutions, site by site:
E46: W -0.035 ± 0.043 | V -0.031 ± 0.037
G57: V -0.238 ± 0.029 | H -0.195 ± 0.061 | I -0.231 ± 0.045 | N -0.223 ± 0.066 | D -0.249 ± 0.051 | F -0.237 ± 0.052 | T -0.089 ± 0.049 | C -0.163 ± 0.055 | R -0.089 ± 0.036 | P -0.278 ± 0.042 | E -0.213 ± 0.045 | Y -0.127 ± 0.058 | Q -0.116 ± 0.048 | K -0.081 ± 0.054 | S -0.093 ± 0.036 | W -0.256 ± 0.049 | L -0.158 ± 0.034 | A -0.145 ± 0.042
K65: G 0.023 ± 0.074 | C -0.035 ± 0.049 | Y -0.13 ± 0.047 | M -0.078 ± 0.048 | I 0.04 ± 0.076 | F -0.098 ± 0.05 | N -0.051 ± 0.057 | T -0.003 ± 0.055 | P 0.025 ± 0.064 | R 0.004 ± 0.044 | H 0.014 ± 0.06 | A 0.002 ± 0.051 | E -0.03 ± 0.084 | S -0.015 ± 0.035 | L -0.052 ± 0.037 | Q -0.023 ± 0.06 | D -0.019 ± 0.082 | W -0.145 ± 0.055 | V -0.015 ± 0.056
I51: V 0.009 ± 0.049 | Q 0.007 ± 0.047 | T -0.033 ± 0.048 | E -0.026 ± 0.048 | M 0.023 ± 0.044 | N -0.071 ± 0.074 | F -0.082 ± 0.079 | L -0.003 ± 0.03 | R -0.004 ± 0.034 | P -0.023 ± 0.05 | G -0.079 ± 0.042 | H -0.019 ± 0.082 | Y 0.037 ± 0.089 | W -0.041 ± 0.039 | C 0.031 ± 0.084 | A -0.038 ± 0.042 | K -0.026 ± 0.05
R56: K 0.003 ± 0.057 | D -0.175 ± 0.079 | N 0.018 ± 0.1 | I -0.143 ± 0.093 | H -0.069 ± 0.059 | A -0.069 ± 0.049 | Q -0.044 ± 0.062 | C -0.097 ± 0.057 | G -0.081 ± 0.039 | W -0.207 ± 0.045 | F -0.181 ± 0.05 | T -0.142 ± 0.055 | V -0.1 ± 0.04 | E -0.066 ± 0.053 | Y -0.131 ± 0.065 | S -0.088 ± 0.038 | P -0.062 ± 0.048 | M -0.068 ± 0.064
A60: H -0.771 ± 0.099 | G -0.171 ± 0.037 | L -0.636 ± 0.033 | N -1.08 ± 0.21 | W -1 ± 0.14 | M -0.752 ± 0.062 | Q -0.717 ± 0.064 | S -0.14 ± 0.034 | F -0.79 ± 0.078 | C -0.115 ± 0.085 | E -0.812 ± 0.073 | T -0.487 ± 0.043 | V -0.254 ± 0.031
P58: K -0.036 ± 0.052 | H -0.142 ± 0.12 | R -0.029 ± 0.044 | D -0.037 ± 0.059 | G -0.082 ± 0.039 | I -0.055 ± 0.072 | V -0.021 ± 0.035 | Q -0.015 ± 0.052 | Y -0.066 ± 0.073 | F -0.046 ± 0.055 | W -0.016 ± 0.047 | L -0.018 ± 0.028 | S -0.026 ± 0.038 | A 0 ± 0.047 | M 0.006 ± 0.041 | E -0.017 ± 0.058 | C -0.083 ± 0.059
N62: D 0.189 ± 0.42 | I -0.299 ± 0.39 | Q 0.152 ± 0.43
V52: P -0.514 ± 0.048 | Q -0.001 ± 0.054 | M 0.038 ± 0.059 | I -0.018 ± 0.048 | G -0.029 ± 0.035 | E -0.004 ± 0.037 | R 0.009 ± 0.032 | F -0.029 ± 0.064 | C -0.014 ± 0.077 | S -0.018 ± 0.039 | H -0.033 ± 0.075 | Y -0.043 ± 0.092 | T 0.012 ± 0.027 | D -0.092 ± 0.072 | N -0.02 ± 0.093 | A 0.029 ± 0.037 | W -0.053 ± 0.048
E50: W -0.013 ± 0.043 | G -0.032 ± 0.032 | C -0.007 ± 0.053 | D 0.016 ± 0.065 | M -0.017 ± 0.058 | L -0.016 ± 0.035 | I -0.049 ± 0.066 | V -0.018 ± 0.036 | Q 0 ± 0.052 | F -0.029 ± 0.051 | H -0.07 ± 0.076 | T 0.01 ± 0.06 | R -0.002 ± 0.036 | S -0.029 ± 0.036 | K -0.008 ± 0.066 | P -0.964 ± 0.11 | Y 0.005 ± 0.059
V63: F -1.01 ± 0.085 | I -0.126 ± 0.054 | P -0.643 ± 0.052 | M -0.283 ± 0.05 | H -0.771 ± 0.1 | W -0.774 ± 0.07 | E -0.782 ± 0.077 | Q -1.13 ± 0.18 | K -0.721 ± 0.071 | T -0.432 ± 0.053 | L -0.018 ± 0.03 | G -0.873 ± 0.062 | N -0.528 ± 0.073 | Y -0.798 ± 0.082 | R -0.71 ± 0.042 | A -0.205 ± 0.044 | C 0.009 ± 0.083
N55: T -0.256 ± 0.18 | L -0.035 ± 0.11 | P -0.026 ± 0.15 | R -0.075 ± 0.094 | D -0.309 ± 0.28 | Q -0.042 ± 0.18 | A -0.035 ± 0.16 | K 0.018 ± 0.15 | C -0.089 ± 0.17 | W 0.002 ± 0.22 | V 0.005 ± 0.099 | I 0.059 ± 0.13 | S 0.049 ± 0.092 | G -0.064 ± 0.12 | E -0.043 ± 0.31 | F 0.046 ± 0.43
V47: I 0.065 ± 0.14 | G -0.623 ± 0.26 | A -0.215 ± 0.25 | M -0.702 ± 0.48 | S -0.866 ± 0.38 | L -0.332 ± 0.23 | Q -0.935 ± 0.36
F49: Y -0.037 ± 0.083 | M -0.002 ± 0.044 | E -0.965 ± 0.11 | S -0.577 ± 0.045 | Q -0.893 ± 0.094 | K -1.08 ± 0.13 | C -0.021 ± 0.089 | P -0.984 ± 0.079 | L -0.007 ± 0.029 | H -0.445 ± 0.09 | D -1.08 ± 0.16 | V -0.076 ± 0.03 | I -0.123 ± 0.08 | T -0.27 ± 0.045 | N -1.05 ± 0.21 | R -0.968 ± 0.088 | W -0.69 ± 0.074
Q59: N -0.082 ± 0.092 | S -0.01 ± 0.028 | R 0.092 ± 0.033 | V -0.029 ± 0.039 | T -0.035 ± 0.042 | P -0.733 ± 0.081 | F 0.061 ± 0.056 | Y -0.012 ± 0.065 | G -0.192 ± 0.035 | W -0.029 ± 0.036 | D -0.429 ± 0.072 | A -0.003 ± 0.031 | M -0.011 ± 0.044 | K 0.059 ± 0.055 | I -0.08 ± 0.063 | C -0.05 ± 0.061 | L 0.016 ± 0.025 | E -0.103 ± 0.041 | H -0.02 ± 0.068
V64: D -0.057 ± 0.072 | R -0.003 ± 0.035 | P -0.731 ± 0.089 | Q 0.032 ± 0.088 | W -0.042 ± 0.053 | E -0.003 ± 0.056 | M -0.064 ± 0.066 | A -0.03 ± 0.044 | H -0.057 ± 0.099 | F 0.011 ± 0.046 | L -0.015 ± 0.038 | T -0.012 ± 0.067 | K -0.029 ± 0.068 | C 0.032 ± 0.07 | Y -0.054 ± 0.059 | N -0.02 ± 0.087 | G -0.042 ± 0.035 | S -0.019 ± 0.04
L66: E -0.01 ± 0.12 | F 0.033 ± 0.086 | W 0.004 ± 0.05 | P -0.022 ± 0.043 | D -0.101 ± 0.18 | S -0.016 ± 0.04 | A -0.055 ± 0.065 | V 0.025 ± 0.063 | G 0.005 ± 0.08 | T -0.023 ± 0.057 | Q 0.021 ± 0.057 | H -0.214 ± 0.11 | R -0.018 ± 0.042 | M -0.018 ± 0.057 | C -0.067 ± 0.084 | Y -0.054 ± 0.12 | I -0.044 ± 0.083
Q53: M 0.01 ± 0.044 | H -0.046 ± 0.08 | L -0.027 ± 0.028 | S -0.03 ± 0.036 | R -0.002 ± 0.043 | T 0.018 ± 0.044 | N 0.004 ± 0.071 | E 0.003 ± 0.052 | P -0.092 ± 0.041 | V -0.001 ± 0.04 | A -0.002 ± 0.045 | D 0.022 ± 0.093 | W 0.007 ± 0.052 | K -0.033 ± 0.052
S48: A 0.003 ± 0.041 | P -0.847 ± 0.061 | H -0.023 ± 0.068 | V -0.059 ± 0.041 | Y 0.022 ± 0.069 | E 0.027 ± 0.054 | Q -0.007 ± 0.052 | L -0.035 ± 0.032 | D 0.004 ± 0.06 | G -0.005 ± 0.043 | I -0.028 ± 0.074 | M 0.026 ± 0.05 | N -0.099 ± 0.089 | C -0.047 ± 0.061 | F -0.008 ± 0.063 | T 0.002 ± 0.047 | W -0.074 ± 0.066
A61: Q 0.012 ± 0.047 | Y 0.015 ± 0.076 | H -0.004 ± 0.072 | I 0.01 ± 0.079 | E -0.051 ± 0.048 | W -0.003 ± 0.058 | L -0.067 ± 0.044 | C -0.03 ± 0.047 | R 0.015 ± 0.035 | S 0.008 ± 0.04 | T -0.072 ± 0.039 | K 0.02 ± 0.046 | P -0.828 ± 0.062 | F -0.06 ± 0.047 | V -0.06 ± 0.06 | N -0.061 ± 0.063 | M 0.022 ± 0.21 | D -0.024 ± 0.073
G54: V -0.171 ± 0.068 | C -0.013 ± 0.047 | K -0.038 ± 0.098 | I -0.227 ± 0.13 | A -0.028 ± 0.061 | W -0.18 ± 0.036 | M -0.236 ± 0.18 | R -0.044 ± 0.037 | H 0.045 ± 0.11 | N -0.11 ± 0.12 | L -0.131 ± 0.052 | E -0.106 ± 0.059 | D -0.07 ± 0.067 | F -0.127 ± 0.075 | P -0.308 ± 0.062 | S -0.026 ± 0.034 | T 0.01 ± 0.068
